Test results reported in paper PMC3910116, “Super Spy variants implicate flexibility in chaperone action” (eLife, 2014).

Legend:
Conditions in all cases: both partners purified
[1] = molecular target: T1, N-terminal strep-tagged Spy (E. coli, UniProt P77754 24-161); experiment: pull-down; tryptic fragments of Im7 L53A I54A mixed with N-terminal strep-tagged Spy, strep-tactin sepharose column, eluted with 2.5 mM desthiobiotin, fragments identified by LC/MS
T1 construct: Spy, E. coli; Probably the mature protein behind the tag; not shown: Strep tag, N-terminal, kept
T1 sequence (looked up): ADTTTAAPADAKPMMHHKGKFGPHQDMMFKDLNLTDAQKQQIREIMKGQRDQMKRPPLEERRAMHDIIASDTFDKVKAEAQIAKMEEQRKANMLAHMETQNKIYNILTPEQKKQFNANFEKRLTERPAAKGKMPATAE

Spy F115I [2] = molecular target: T2, Spy F115I (E. coli, UniProt P77754 24-161, F115I); experiment: BLI; biotinylated Im7 L53A I54A immobilised on streptavidin sensors (Octet RED); Spy variants at 2, 1, 0.5, 0.25 and 0.125 µM; 25°C; 40 mM HEPES, 150 mM NaCl, pH 7.5; 1:1 binding model, KD = koff/kon; apparent
T2 construct: N-terminal serine from the Sumo fusion construct; the footnote says it of Spy purification in general; Spy, E. coli, mature protein; numbers count on: the mature protein; Variant of m1 found by genetic selection, remade by site-directed mutagenesis; also called super-Spy variant; source: purified; not shown: SUMO, N-terminal, cleaved (from the N-terminal serine said of Spy purification in general)
T2 sequence: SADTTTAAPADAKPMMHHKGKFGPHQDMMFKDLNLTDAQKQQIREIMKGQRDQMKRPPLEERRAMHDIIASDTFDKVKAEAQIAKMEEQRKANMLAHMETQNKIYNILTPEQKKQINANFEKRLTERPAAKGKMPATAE

Spy Q25R [3] = molecular target: T3, Spy Q25R (E. coli, UniProt P77754 24-161, Q25R); experiment: as above
T3 construct: N-terminal serine from the Sumo fusion construct; the footnote says it of Spy purification in general; Spy, E. coli, mature protein; numbers count on: the mature protein; Variant of m1 found by genetic selection, remade by site-directed mutagenesis; also called super-Spy variant; source: purified; not shown: SUMO, N-terminal, cleaved (from the N-terminal serine said of Spy purification in general)
T3 sequence: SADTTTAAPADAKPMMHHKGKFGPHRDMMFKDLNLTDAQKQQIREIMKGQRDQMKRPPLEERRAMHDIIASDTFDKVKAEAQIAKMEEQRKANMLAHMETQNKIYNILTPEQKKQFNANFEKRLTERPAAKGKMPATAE

Spy Q100L [4] = molecular target: T4, Spy Q100L (E. coli, UniProt P77754 24-161, Q100L); experiment: as above
T4 construct: N-terminal serine from the Sumo fusion construct; the footnote says it of Spy purification in general; Spy, E. coli, mature protein; numbers count on: the mature protein; Variant of m1 found by genetic selection, remade by site-directed mutagenesis; also called super-Spy variant; source: purified; not shown: SUMO, N-terminal, cleaved (from the N-terminal serine said of Spy purification in general)
T4 sequence: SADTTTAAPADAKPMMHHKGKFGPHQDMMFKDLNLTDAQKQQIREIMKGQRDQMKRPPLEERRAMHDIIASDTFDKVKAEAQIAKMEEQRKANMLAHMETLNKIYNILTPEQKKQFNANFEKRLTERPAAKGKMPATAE

Spy F115L [5] = molecular target: T5, Spy F115L (E. coli, UniProt P77754 24-161, F115L); experiment: as above
T5 construct: N-terminal serine from the Sumo fusion construct; the footnote says it of Spy purification in general; Spy, E. coli, mature protein; numbers count on: the mature protein; Variant of m1 found by genetic selection, remade by site-directed mutagenesis; also called super-Spy variant; source: purified; not shown: SUMO, N-terminal, cleaved (from the N-terminal serine said of Spy purification in general)
T5 sequence: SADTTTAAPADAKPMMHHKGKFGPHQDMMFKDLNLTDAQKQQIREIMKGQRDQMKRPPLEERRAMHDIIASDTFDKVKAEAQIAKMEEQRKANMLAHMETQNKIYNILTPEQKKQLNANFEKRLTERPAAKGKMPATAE

Spy L32P [6] = molecular target: T6, Spy L32P (E. coli, UniProt P77754 24-161, L32P); experiment: as above
T6 construct: N-terminal serine from the Sumo fusion construct; the footnote says it of Spy purification in general; Spy, E. coli, mature protein; numbers count on: the mature protein; Variant of m1 found by genetic selection, remade by site-directed mutagenesis; also called super-Spy variant; source: purified; not shown: SUMO, N-terminal, cleaved (from the N-terminal serine said of Spy purification in general)
T6 sequence: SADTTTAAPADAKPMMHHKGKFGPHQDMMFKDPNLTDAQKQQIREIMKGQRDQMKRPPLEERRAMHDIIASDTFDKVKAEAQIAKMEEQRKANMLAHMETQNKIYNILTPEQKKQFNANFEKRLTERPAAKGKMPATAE

Spy Q49L [7] = molecular target: T7, Spy Q49L (E. coli, UniProt P77754 24-161, Q49L); experiment: as above
T7 construct: N-terminal serine from the Sumo fusion construct; the footnote says it of Spy purification in general; Spy, E. coli, mature protein; numbers count on: the mature protein; Variant of m1 found by genetic selection, remade by site-directed mutagenesis; also called super-Spy variant; source: purified; not shown: SUMO, N-terminal, cleaved (from the N-terminal serine said of Spy purification in general)
T7 sequence: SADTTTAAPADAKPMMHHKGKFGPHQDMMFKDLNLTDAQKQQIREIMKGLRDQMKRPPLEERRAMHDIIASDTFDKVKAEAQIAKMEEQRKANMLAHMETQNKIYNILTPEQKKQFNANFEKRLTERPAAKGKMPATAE

Spy H96L [8] = molecular target: T8, Spy H96L (E. coli, UniProt P77754 24-161, H96L); experiment: as above
T8 construct: N-terminal serine from the Sumo fusion construct; the footnote says it of Spy purification in general; Spy, E. coli, mature protein; numbers count on: the mature protein; Variant of m1 found by genetic selection, remade by site-directed mutagenesis; also called super-Spy variant; source: purified; not shown: SUMO, N-terminal, cleaved (from the N-terminal serine said of Spy purification in general)
T8 sequence: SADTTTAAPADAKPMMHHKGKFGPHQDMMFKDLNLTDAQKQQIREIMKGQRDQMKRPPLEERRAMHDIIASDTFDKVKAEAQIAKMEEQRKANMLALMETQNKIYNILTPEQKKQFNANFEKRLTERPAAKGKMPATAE

Spy (wild type) [9] = molecular target: T9, Spy (wild type) (E. coli, UniProt P77754 24-161); experiment: as above
T9 construct: N-terminal serine introduced from the Sumo fusion construct used for purification; numbers count on: the mature protein; construct as in Quan et al., 2011; also called WT; wild-type Spy; source: purified from a Sumo fusion construct (Quan et al., 2011); not shown: SUMO, N-terminal, cleaved (from the N-terminal serine left on the protein)
T9 sequence: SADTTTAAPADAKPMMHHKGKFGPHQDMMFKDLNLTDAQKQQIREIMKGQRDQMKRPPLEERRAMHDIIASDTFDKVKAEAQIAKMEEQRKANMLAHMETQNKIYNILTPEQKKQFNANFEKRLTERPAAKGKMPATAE

Spy (wild type) [10] = molecular target: T9, Spy (wild type); experiment: ITC; Spy with full length Im7 L53A I54A or purified Im7 peptides; conditions and who was titrated not told
Spy F115I [11] = molecular target: T2, Spy F115I; experiment: HDX-MS; top-down ECD-FTICR-MS; 25 µM Spy (dimer) and 100 µM Im7 peptide (1:4), 10 mM ammonium acetate, 80% D2O, labelling time 10 s
Spy Q25R [12] = molecular target: T3, Spy Q25R; experiment: as above
Spy Q100L [13] = molecular target: T4, Spy Q100L; experiment: as above
Spy F115L [14] = molecular target: T5, Spy F115L; experiment: as above
Spy L32P [15] = molecular target: T6, Spy L32P; experiment: as above
Spy Q49L [16] = molecular target: T7, Spy Q49L; experiment: as above
Spy H96L [17] = molecular target: T8, Spy H96L; experiment: as above

B1: Im7 L53A I54A tryptic fragment 5–73 (domain or fragment, UniProt Q03708 5-73, looked up)
chain: NSISDYTEAEFVQLLKEIEKENVAATDDVLDVLLEHFVKITEHPDGTDAAYYPSDNRDDSPEGIVKEIK
notes: immunity protein 7 (Im7), residues 5-73; source: limited proteolysis of Im7 L53A I54A with trypsin
B1: binds [1].

B2: Im7 L53A I54A tryptic fragment 5–70 (domain or fragment, UniProt Q03708 5-70, looked up)
chain: NSISDYTEAEFVQLLKEIEKENVAATDDVLDVLLEHFVKITEHPDGTDAAYYPSDNRDDSPEGIVK
notes: immunity protein 7 (Im7), residues 5-70; source: limited proteolysis of Im7 L53A I54A with trypsin
B2: binds [1].

B3: Im7 L53A I54A tryptic fragment 5–76 (domain or fragment, UniProt Q03708 5-76, looked up)
chain: NSISDYTEAEFVQLLKEIEKENVAATDDVLDVLLEHFVKITEHPDGTDAAYYPSDNRDDSPEGIVKEIKEWR
notes: immunity protein 7 (Im7), residues 5-76; source: limited proteolysis of Im7 L53A I54A with trypsin
B3: binds [1].

B4: Biotinylated Im7 L53A I54A (natural protein)
chain: SMELKNSISDYTEAEFVQLLKEIEKENVAATDDVLDVLLEHFVKITEHPDGTDAAYYPSDNRDDSPEGIVKEIKEWRAANGKPGFKQG
modifications: biotin (EZ-link NHS-biotin at 1:1 molar ratio; site not stated)
notes: N-terminal serine from the Sumo fusion construct; the footnote says it of Im7 purification in general; immunity protein 7 (Im7), colicin E7 immunity protein; Same protein as m10 with biotin; held on streptavidin sensors; also called biotin-conjugated Im7 L53A I54A; immunity protein 7 L53A I54A; source: purified from a Sumo fusion construct (Quan et al., 2011), biotinylated with EZ-link …
Work on B4 yielded a Kd (Spy F115I [2]) of 1170 nM, a koff (Spy F115I [2]) of 0.328 s⁻¹ and a Kd (Spy Q25R [3]) of 870 nM. The koff (Spy Q25R [3]) was 0.198 s⁻¹, the Kd (Spy Q100L [4]) was 230 nM and the koff (Spy Q100L [4]) was 0.027 s⁻¹. For the same binder, the Kd (Spy F115L [5]) was 900 nM, the koff (Spy F115L [5]) was 0.245 s⁻¹ and the Kd (Spy L32P [6]) was 200 nM. The koff (Spy L32P [6]) was 0.03 s⁻¹, the Kd (Spy Q49L [7]) was 760 nM and the koff (Spy Q49L [7]) was 0.176 s⁻¹. For the same binder, the Kd (Spy H96L [8]) was 1000 nM, the koff (Spy H96L [8]) was 0.266 s⁻¹ and the Kd (Spy (wild type) [9]) was 1150 nM. It also gave a koff (Spy (wild type) [9]) of 0.456 s⁻¹.

B5: Im7 L53A I54A (natural protein)
chain: SMELKNSISDYTEAEFVQLLKEIEKENVAATDDVLDVLLEHFVKITEHPDGTDAAYYPSDNRDDSPEGIVKEIKEWRAANGKPGFKQG
notes: N-terminal serine from the Sumo fusion construct; the footnote says it of Im7 purification in general; immunity protein 7 (Im7), colicin E7 immunity protein; also called full length Im7 L53A I54A; immunity protein 7 L53A I54A; source: purified from a Sumo fusion construct (Quan et al., 2011); not shown: SUMO, N-terminal, cleaved (from the N-terminal serine said of Im7 purification in general)
Binder B5 has a Kd (Spy (wild type) [10]) of 2500 nM.

B6: Im7 12-45 peptide (peptide)
chain: SEAEFVQLLKEIEKENVAATDDVLDVLLEHFVKIT
notes: N-terminal serine from the Sumo fusion construct; the footnote says it of Im7 purification in general; immunity protein 7 (Im7), residues 12-45; source: expressed in vivo, purified; not shown: SUMO, N-terminal, cleaved (from the N-terminal serine said of Im7 purification in general)
B6 gave a Kd (Spy (wild type) [10]) of 8000 nM.

B7: Im7 7-45 peptide (peptide)
chain: SISDYTEAEFVQLLKEIEKENVAATDDVLDVLLEHFVKIT
notes: N-terminal serine introduced from the Sumo fusion construct; immunity protein 7 (Im7), residues 7-45; Called a 40-amino acid peptide: 39 residues of Im7 and the N-terminal serine; An equimolar mixture of unlabelled and 15N-labelled peptide was used for PICUP and EDC; also called Im7 L53A I54A 7-45 peptide; source: expressed in vivo as a Sumo fusion construct, purified; not shown: SUMO, …
B7 was tested, and the Kd (Spy (wild type) [10]) was 2600 nM, the binding result (Spy F115I [11]) was “binds” and the binding result (Spy Q25R [12]) was “binds”. B7: binds (Spy Q100L [13]); binds (Spy F115L [14]); binds (Spy L32P [15]). B7: binds (Spy Q49L [16]); binds (Spy H96L [17]).

B8: Im7 3-45 peptide (peptide)
chain: SLKNSISDYTEAEFVQLLKEIEKENVAATDDVLDVLLEHFVKIT
notes: N-terminal serine from the Sumo fusion construct; the footnote says it of Im7 purification in general; immunity protein 7 (Im7), residues 3-45; source: expressed in vivo, purified; not shown: SUMO, N-terminal, cleaved (from the N-terminal serine said of Im7 purification in general)
Binder B8 has a Kd (Spy (wild type) [10]) of 2300 nM.

B9: Im7 L53A I54A tryptic fragment 5–43 (peptide, UniProt Q03708 5-43, looked up)
chain: NSISDYTEAEFVQLLKEIEKENVAATDDVLDVLLEHFVK
notes: immunity protein 7 (Im7), residues 5-43; most of the α1 and α2 helices; source: limited proteolysis of Im7 L53A I54A with trypsin
B9: binds [1].
